Measurements reported in US20220025023A1 (AC IMMUNE, published 2022).
Where no end group is shown, it is not given here.

T1: TDP-3 peptide (human)
T1 construct: Irrelevant control peptide; conjugated to Luminex beads in the assay; also called TDP-43 aa 310-370; irrelevant target
T1 peptide: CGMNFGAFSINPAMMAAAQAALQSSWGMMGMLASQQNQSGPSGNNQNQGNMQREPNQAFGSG

T2: TP-24 peptide (human, also: biotinylated, site not given here)
T2 construct: 15-mer of human TDP-43 from the library spanning aa 199-285; captured on streptavidin plates
T2 peptide: REFFSQYGDVMDVFI

T3: TP-25 peptide (human, also: biotinylated, site not given here)
T3 construct: 15-mer of human TDP-43 from the library spanning aa 199-285; captured on streptavidin plates
T3 peptide: VMDVFIPKPFRAFAF

T4: TP-27 (also: biotinylated, site not given here)
T4 construct: also called TP-27 peptide
T4 peptide: ADDQIAQSLCGEDLI

T5: TP-30 (also: biotinylated, site not given here)
T5 construct: also called TP-30 peptide
T5 peptide: PKHNSNRQLERSGRF

T6: TP-29 (also: biotinylated, site not given here)
T6 construct: also called TP-29 peptide
T6 peptide: ISVHISNAEPKHNSN

T7: TP-31 (also: biotinylated, site not given here)
T7 construct: also called TP-31 peptide
T7 peptide: ERSGRFGGNPGGFGN

T8: TP-26 (also: biotinylated, site not given here)
T8 construct: also called TP-26 peptide
T8 peptide: FRAFAFVTFADDQIA

T9: TDP-1 peptide (human)
T9 construct: Immunogen peptide; conjugated to Luminex beads in the assay; also called TDP-43 aa 212-272
T9 peptide: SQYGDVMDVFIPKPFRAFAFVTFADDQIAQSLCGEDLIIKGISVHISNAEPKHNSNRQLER

T10: TDP-210 peptide (human)
T10 construct: 8-mer of human TDP-43; same ELISA method as for the biotinylated 15-mers
T10 peptide: FFSQYGDV

T11: TDP-212 peptide (human)
T11 construct: 8-mer of human TDP-43; same ELISA method as for the biotinylated 15-mers
T11 peptide: SQYGDVMD

T12: TDP-211 peptide (human)
T12 construct: 8-mer of human TDP-43; same ELISA method as for the biotinylated 15-mers
T12 peptide: FSQYGDVM

T13: TDP-220 peptide (human)
T13 construct: 8-mer of human TDP-43; same ELISA method as for the biotinylated 15-mers
T13 peptide: VFIPKPFR

T14: TDP-217 peptide (human)
T14 construct: 8-mer of human TDP-43; same ELISA method as for the biotinylated 15-mers
T14 peptide: VMDVFIPK

T15: TDP-224 peptide (human)
T15 construct: 8-mer of human TDP-43; same ELISA method as for the biotinylated 15-mers
T15 peptide: KPFRAFAF

T16: TDP-219 peptide (human)
T16 construct: 8-mer of human TDP-43; same ELISA method as for the biotinylated 15-mers
T16 peptide: DVFIPKPF

T17: TDP-221 peptide (human)
T17 construct: 8-mer of human TDP-43; same ELISA method as for the biotinylated 15-mers
T17 peptide: FIPKPFRA

T18: TDP-218 peptide (human)
T18 construct: 8-mer of human TDP-43; same ELISA method as for the biotinylated 15-mers
T18 peptide: MDVFIPKP

T19: TDP-223 peptide (human)
T19 construct: 8-mer of human TDP-43; same ELISA method as for the biotinylated 15-mers
T19 peptide: PKPFRAFA

T20: TDP-214 peptide (human)
T20 construct: 8-mer of human TDP-43; same ELISA method as for the biotinylated 15-mers
T20 peptide: YGDVMDVF

T21: TDP-222 peptide (human)
T21 construct: 8-mer of human TDP-43; same ELISA method as for the biotinylated 15-mers
T21 peptide: IPKPFRAF

T22: TDP-213 peptide (human)
T22 construct: 8-mer of human TDP-43; same ELISA method as for the biotinylated 15-mers
T22 peptide: QYGDVMDV

T23: TDP-215 peptide (human)
T23 construct: same ELISA method as for the biotinylated 15-mers
T23 peptide: GDVMDVFI

T24: TP-28 (also: biotinylated, site not given here)
T24 construct: also called TP-28 peptide
T24 peptide: CGEDLIIKGISVHIS

B1: ACI-7062-404D6-Ab2 (antibody, IgG3, V domains shown)
VH: QVTLKESGPGILQPSQTLSLTCSFSGFSLSTYGIGVGWIRQPSGKGLEWLAHIWWNDYKYYNTALKSRLTISKDTSNNRVFLKIASVDTADTATYYCARVYGNLYYFDYWGQGTTLTVSS
VL: DVLMTQTPLSLPVSLGDQASISCRSSQSIVHGSGNTYLEWYLQKPGQSPKLLIYKVSNRFSGVPDRFSGSGSGTDFTLRISRVEAEDLGVYYCFQGSHVPTFGAGTKLELKR
notes: also called 404D6E11; clone 4
B2: ACI-7062-401A2-Ab2 (antibody, IgG1, V domains shown)
VH: DVQLVESGGGLVQPGGSRRLSCAASGFTFSRFGMHWVRQAPEKGLEWVAYIRSGSDIIYYADSVKGRFTISRDNPENTLFLQMTSLRSEDTAMYYCARSGTTVPFDYWGQGTSLTVSS
VL: DIVMTQSPSSLAMSVGQKVTMSCKSSQSLLNSGDQKNYLAWYQQKPGQSPELLLYFASTRASGVPDRFIGSGSGTDFSLTISSVQAEDLADYFCQQHYSIPLTFGAGTKLELKR
notes: also called 401A2C6; clone 2

Experiments:
TDP-3 peptide = target: T1, TDP-3 peptide; test: Luminex bead assay, serial dilution of the antibody, MFI
BSA = target: T25, BSA (bovine, UniProt P02769); test: indirect ELISA, control coat in the 15-mer series, hybridoma supernatant
T25 construct: not specified; also called bovine serum albumin

TP-24 peptide = target: T2, TP-24 peptide; test: indirect ELISA, biotinylated 15-mer peptide on streptavidin plate, hybridoma supernatant
Procedure: (§1) Serum-free supernatants were harvested from stable hybridomas. The supernatants containing antibodies of interest were then screened by an indirect ELISA assay to determine epitopes. Epitopes were mapped using a library of TDP-43 15-mer peptides. Briefly, 96-well streptavidin-coated 96-well ELISA plates were incubated with 5 μg/mL of biotinylated 15-mer peptides spanning the amino acids (aa) 199-285 of human TDP-43 with 9 aa offset and 6 aa overlap. Plates were washed thoroughly with 0.05% Tween-20/PBS and then blocked with 1% bovine serum albumin (BSA) in 0.05% Tween-20/PBS for 1 hour at 37° C. The antibody contained in the hybridoma supernatant was then added at the indicated dilutions, and incubated for 2 hours at 37° C. after which the plates were washed as described previously. An AP-conjugated anti-mouse IgG secondary antibody (Jackson ImmunoResearch Laboratories, United Kingdom) was added at 1/1000 dilution in 0.05% Tween-20/PBS for 1 hour at 37° C. After the final wash, plates were incubated with pNPP (Sigma-Aldrich, Switzerland) an AP substrate solution, and read at 405 nm using an ELISA plate reader (Tecan).

TP-25 peptide = target: T3, TP-25 peptide; test: as above
Procedure: as §1

TP-27 = target: T4, TP-27; test: indirect ELISA, biotinylated 15-mer on streptavidin plate, hybridoma supernatant
Procedure: as §1

TP-30 = target: T5, TP-30; test: as above
Procedure: as §1

TP-29 = target: T6, TP-29; test: as above
Procedure: as §1

TP-31 = target: T7, TP-31; test: as above
Procedure: as §1

TP-26 = target: T8, TP-26; test: as above
Procedure: as §1

TDP-1 peptide = target: T9, TDP-1 peptide; test: Luminex bead assay, antibody serial dilution, TDP-1 peptide beads
TDP-210 peptide = target: T10, TDP-210 peptide; test: indirect ELISA, 8-mer peptide library
Procedure: as §1
(§2) Furthermore, antibodies were tested using an indirect ELISA on a peptide library of 8-mer peptides with 7 aa overlap covering the sequence of human TDP-43 from aa 210 to aa 231, using the same ELISA method as describe previously in this section.

TDP-212 peptide = target: T11, TDP-212 peptide; test: indirect ELISA, 8-mer peptide library
Procedure: as §1, §2

TDP-211 peptide = target: T12, TDP-211 peptide; test: indirect ELISA, 8-mer peptide library
Procedure: as §1, §2

TDP-220 peptide = target: T13, TDP-220 peptide; test: indirect ELISA, 8-mer peptide library
Procedure: as §1, §2

TDP-217 peptide = target: T14, TDP-217 peptide; test: indirect ELISA, 8-mer peptide library
Procedure: as §1, §2

TDP-224 peptide = target: T15, TDP-224 peptide; test: indirect ELISA, 8-mer peptide library
Procedure: as §1, §2

TDP-219 peptide = target: T16, TDP-219 peptide; test: indirect ELISA, 8-mer peptide library
Procedure: as §1, §2

TDP-221 peptide = target: T17, TDP-221 peptide; test: indirect ELISA, 8-mer peptide library
Procedure: as §1, §2

TDP-218 peptide = target: T18, TDP-218 peptide; test: indirect ELISA, 8-mer peptide library
Procedure: as §1, §2

TDP-223 peptide = target: T19, TDP-223 peptide; test: indirect ELISA, 8-mer peptide library
Procedure: as §1, §2

TDP-214 peptide = target: T20, TDP-214 peptide; test: indirect ELISA, 8-mer peptide library
Procedure: as §1, §2

TDP-222 peptide = target: T21, TDP-222 peptide; test: indirect ELISA, 8-mer peptide library
Procedure: as §1, §2

TDP-213 peptide = target: T22, TDP-213 peptide; test: indirect ELISA, 8-mer peptide library
Procedure: as §1, §2

TDP-215 peptide = target: T23, TDP-215 peptide; test: indirect ELISA, 8-mer peptide library, OD 405 nm
Procedure: as §1, §2

TP-28 = target: T24, TP-28; test: indirect ELISA, biotinylated 15-mer on streptavidin plate, hybridoma supernatant
Procedure: as §1

T25 sequence (P02769 25-607 limits assumed): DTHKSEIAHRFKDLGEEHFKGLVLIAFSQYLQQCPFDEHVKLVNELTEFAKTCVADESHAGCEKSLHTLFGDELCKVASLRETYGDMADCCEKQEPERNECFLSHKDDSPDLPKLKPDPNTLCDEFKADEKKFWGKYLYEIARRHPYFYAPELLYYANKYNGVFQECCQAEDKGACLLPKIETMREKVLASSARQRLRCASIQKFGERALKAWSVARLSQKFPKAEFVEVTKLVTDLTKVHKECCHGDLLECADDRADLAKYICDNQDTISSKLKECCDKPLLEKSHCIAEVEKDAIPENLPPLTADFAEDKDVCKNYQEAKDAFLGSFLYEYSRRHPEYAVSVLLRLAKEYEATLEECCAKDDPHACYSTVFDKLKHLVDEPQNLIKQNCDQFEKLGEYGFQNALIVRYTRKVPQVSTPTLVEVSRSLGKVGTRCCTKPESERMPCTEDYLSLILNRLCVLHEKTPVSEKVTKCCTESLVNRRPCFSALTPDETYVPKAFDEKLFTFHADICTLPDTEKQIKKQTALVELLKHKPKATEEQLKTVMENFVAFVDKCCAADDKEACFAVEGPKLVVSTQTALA

Row | Binder | binding result (TDP-3 peptide) | binding result (BSA) | OD (TP-24 peptide) | OD (TP-25 peptide) | binding result (TP-27) | binding result (TP-30) | binding result (TP-29) | binding result (TP-31) | binding result (TP-26) | EC50 (TDP-1 peptide) | further results
1 | B1 | no binding (tested: about 20000 pM) | no binding | 4 O.D. (405 nm) | 0.9 O.D. (405 nm) | no binding | no binding | no binding | no binding | no binding | < 0.01 nM | –
2 | B2 | no binding (tested: about 20000 pM) | no binding | 2.5 O.D. (405 nm) | 1 O.D. (405 nm) | no binding | no binding | no binding | no binding | no binding | < 0.01 nM | binding result (TDP-210 peptide): no binding; binding result (TDP-212 peptide): no binding; binding result (TDP-211 peptide): no binding; binding result (TDP-220 peptide): no binding; binding result (TDP-217 peptide): no binding; binding result (TDP-224 peptide): no binding; binding result (TDP-219 peptide): no binding; binding result (TDP-221 peptide): no binding; binding result (TDP-218 peptide): no binding; binding result (TDP-223 peptide): no binding; binding result (TDP-214 peptide): no binding; binding result (TDP-222 peptide): no binding; binding result (TDP-213 peptide): no binding; binding result (TDP-215 peptide): binds; binding result (TP-28): no binding
